± gives the standard deviation of the averaged measurements.
Key:
[1] = test system: VchCAST RNA-guided transposition machinery (E. coli BL21(DE3) host, lacZ target); test: relative integration efficiency (T-LR orientation) vs wild-type transposon end (log2 (normalized fold change)); transposon end mutated: left end; higher = more efficient transposition
Summary of the method: (§1)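 Co-transformation of E. coli BL21(DE3) combined a pUC57 mini-transposon donor, holding barcoded pools of 1549 left-end or 1849 right-end variants, with a T7-driven plasmid encoding a CRISPR array, tniQ-cas8-cas7-cas6 and tnsA-tnsB-tnsC. After plating with 0.1 mM IPTG at 37°C for 18 h, input plasmids and genomic integration junctions were PCR-amplified and Illumina-sequenced across two biological output replicates, with four reference barcodes. Relative integration efficiency is the normalised, log-transformed output/input barcode fold change.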

[2] = test system: VchCAST RNA-guided transposition machinery (E. coli BL21(DE3) host, lacZ target); test: relative integration efficiency (T-RL orientation) vs wild-type transposon end (log2 (normalized fold change)); transposon end mutated: left end; higher = more efficient transposition
Summary of the method: as §1

| Sequence | relative integration efficiency (log2) [1] | relative integration efficiency (log2) [2] |
| --- | --- | --- |
| AATGTTGTTGATGCAACCATAAAGTGATATTTAATAATTATTTATAATCAGCAACTTAACCACAAAACAACCAGCGCGGTCGCGAGACACCCCACCAACGCCTGGTCGCGGGGGTGTCCGATCTGATTTCAGCAAAACTACTGCAGTAAGAA | -5.07 ± 2.1 | -7.15 ± 1.6 |
| AATGTTGTTGATGCAACCATAAAGTGATATTTAATAATTATTTATAATCAGCAACTTAACCACAAAACAACCATAAAATGATAATTAACAAAAGTTGGTATTCAACTATAAAATGTGAATCGAGTATTTCAGCAAAACTACTGCAGTAAGAA | -1.31 ± 1.8 | -2.67 ± 1.1 |
| AATGTTGTTGATGCAACCATAAAGTGATATTTAATAATTATTTATAATCAGCAACTTAACCACAAAACAACCATAAAGTGATATTTAACAAAAGTTGGTATTCAACTATAAAATGTGAATCGAGTATTTCAGCAAAACTACTGCAGTAAGAA | -0.811 ± 0.85 | -2.53 ± 1.4 |
| AATGTTGTTGATGCAACCATAAAGTGATATTTAATAATTATTTATAATCAGCAACTTAACCACAAAACAACCATAAGTTGATATTTTACAAAAGTTGGTATTCAACTATAAAATGTGAATCGAGTATTTCAGCAAAACTACTGCAGTAAGAA | -0.485 ± 0.68 | -2.49 ± 1.1 |
| AATGTTGTTGATGCAACCATAAAGTGATATTTAATAATTATTTATAATCAGCAACTTAACCACAAAACAACCATAGCGGTCGCGAGACACCCCACCAACGCCTGGTCGCGGGGGTGTCCGATCTGATTTCAGCAAAACTACTGCAGTAAGAA | -4.33 ± 1.8 | -6.21 ± 1.6 |
| AATGTTGTTGATGCAACCATAAAGTGATATTTAATAATTATTTATAATCAGCAACTTAACCACAAAACAACCATATAGGTCGCGAGACACCCCACCAACGCCTGGTCGCGGGGGTGTCCGATCTGATTTCAGCAAAACTACTGCAGTAAGAA | -3.44 ± 0.57 | -5.2 ± 1.6 |
| AATGTTGTTGATGCAACCATAAAGTGATATTTAATAATTATTTATAATCAGCAACTTAACCACAAAACAACCATATATTGAGCGAGACACCCCACCAACGCCTGGTCGCGGGGGTGTCCGATCTGATTTCAGCAAAACTACTGCAGTAAGAA | -2.37 ± 1.7 | -4.19 ± 1.3 |
| AATGTTGTTGATGCAACCATAAAGTGATATTTAATAATTATTTATAATCAGCAACTTAACCACAAAACAACCATATATTGATACAAAACAACCATAAGTTGATATTTTTGTGAATCGAGTATTTCAGCAAAACTACTGCAGTAAGAAAGTTA | -2.08 ± 1.7 | -4.34 ± 0.99 |
| AATGTTGTTGATGCAACCATAAAGTGATATTTAATAATTATTTATAATCAGCAACTTAACCACAAAACAACCATATATTGATAGAGACACCCCACCAACGCCTGGTCGCGGGGGTGTCCGATCTGATTTCAGCAAAACTACTGCAGTAAGAA | -1.28 ± 2 | -3.06 ± 1.2 |
| AATGTTGTTGATGCAACCATAAAGTGATATTTAATAATTATTTATAATCAGCAACTTAACCACAAAACAACCATATATTGATATACAAAACAACCATAAGTTGATATTTTTGTGAATCGAGTATTTCAGCAAAACTACTGCAGTAAGAAAGT | -0.952 ± 0.93 | -4.08 ± 1.3 |
| AATGTTGTTGATGCAACCATAAAGTGATATTTAATAATTATTTATAATCAGCAACTTAACCACAAAACAACCATATATTGATATAGACACCCCACCAACGCCTGGTCGCGGGGGTGTCCGATCTGATTTCAGCAAAACTACTGCAGTAAGAA | -1.07 ± 1.7 | -2.48 ± 1.1 |
| AATGTTGTTGATGCAACCATAAAGTGATATTTAATAATTATTTATAATCAGCAACTTAACCACAAAACAACCATATATTGATATCACAAAACAACCATAAGTTGATATTTTTGTGAATCGAGTATTTCAGCAAAACTACTGCAGTAAGAAAG | -0.718 ± 0.95 | -2.64 ± 0.93 |
| AATGTTGTTGATGCAACCATAAAGTGATATTTAATAATTATTTATAATCAGCAACTTAACCACAAAACAACCATATATTGATATCGACACCCCACCAACGCCTGGTCGCGGGGGTGTCCGATCTGATTTCAGCAAAACTACTGCAGTAAGAA | -1.19 ± 2 | -2.44 ± 0.91 |
| AATGTTGTTGATGCAACCATAAAGTGATATTTAATAATTATTTATAATCAGCAACTTAACCACAAAACAACCATATATTGATATCTACAAAACAACCATAAGTTGATATTTTTGTGAATCGAGTATTTCAGCAAAACTACTGCAGTAAGAAA | -0.176 ± 0.54 | -1.23 ± 0.67 |
| AATGTTGTTGATGCAACCATAAAGTGATATTTAATAATTATTTATAATCAGCAACTTAACCACAAAACAACCATATATTGATATCTACACCCCACCAACGCCTGGTCGCGGGGGTGTCCGATCTGATTTCAGCAAAACTACTGCAGTAAGAA | -1.16 ± 1.5 | -2.46 ± 1 |
| AATGTTGTTGATGCAACCATAAAGTGATATTTAATAATTATTTATAATCAGCAACTTAACCACAAAACAACCATATATTGATATCTCAACCCCACCAACGCCTGGTCGCGGGGGTGTCCGATCTGATTTCAGCAAAACTACTGCAGTAAGAA | -0.776 ± 1.1 | -2.58 ± 0.89 |

| Sequence | relative integration efficiency (log2) [1] | relative integration efficiency (log2) [2] |
| --- | --- | --- |
| AATGTTGTTGATGCAACCATAAAGTGATATTTAATAATTATTTATAATCAGCAACTTAACCACAAAACAACCATATATTGATATCTCACAAAAACCAACGCCCTGTCGCGGGCTGTGAATCGAGTATTTCAGCAAAACTACTGCAGTAAGAA | -1.71 ± 0.47 | -2.5 ± 0.88 |
| AATGTTGTTGATGCAACCATAAAGTGATATTTAATAATTATTTATAATCAGCAACTTAACCACAAAACAACCATATATTGATATCTCACAAAAACCAACGCCTGGTCGCGGGGGTGTCCGATCTGATTTCAGCAAAACTACTGCAGTAAGAA | -0.363 ± 1.2 | -2.38 ± 1.1 |
| AATGTTGTTGATGCAACCATAAAGTGATATTTAATAATTATTTATAATCAGCAACTTAACCACAAAACAACCATATATTGATATCTCACAAAACAAAACGCCTGGTCGCGGGGGTGTCCGATCTGATTTCAGCAAAACTACTGCAGTAAGAA | -0.638 ± 1.1 | -2.27 ± 1 |
| AATGTTGTTGATGCAACCATAAAGTGATATTTAATAATTATTTATAATCAGCAACTTAACCACAAAACAACCATATATTGATATCTCACAAAACAACACGCCTGGTCGCGGGGGTGTCCGATCTGATTTCAGCAAAACTACTGCAGTAAGAA | -0.741 ± 1.6 | -2.49 ± 0.9 |
| AATGTTGTTGATGCAACCATAAAGTGATATTTAATAATTATTTATAATCAGCAACTTAACCACAAAACAACCATATATTGATATCTCACAAAACAACCAGCCTGGTCGCGGGGGTGTCCGATCTGATTTCAGCAAAACTACTGCAGTAAGAA | -0.68 ± 0.94 | -2.22 ± 0.9 |
| AATGTTGTTGATGCAACCATAAAGTGATATTTAATAATTATTTATAATCAGCAACTTAACCACAAAACAACCATATATTGATATCTCACAAAACAACCATAAGGGTCGCGGGGGTGTCCGATCTGATTTCAGCAAAACTACTGCAGTAAGAA | -1.56 ± 1 | -1.87 ± 0.93 |
| AATGTTGTTGATGCAACCATAAAGTGATATTTAATAATTATTTATAATCAGCAACTTAACCACAAAACAACCATATATTGATATCTCACAAAACAACCATAAGTGTCGCGGGGGTGTCCGATCTGATTTCAGCAAAACTACTGCAGTAAGAA | -1.82 ± 0.77 | -2.05 ± 0.76 |
| AATGTTGTTGATGCAACCATAAAGTGATATTTAATAATTATTTATAATCAGCAACTTAACCACAAAACAACCATATATTGATATCTCACAAAACAACCATAAGTTGAGCGGGGGTGTCCGATCTGATTTCAGCAAAACTACTGCAGTAAGAA | -1.81 ± 0.51 | -1.32 ± 0.58 |
| AATGTTGTTGATGCAACCATAAAGTGATATTTAATAATTATTTATAATCAGCAACTTAACCACAAAACAACCATATATTGATATCTCACAAAACAACCATAAGTTGATAGGGGGTGTCCGATCTGATTTCAGCAAAACTACTGCAGTAAGAA | -0.256 ± 0.057 | -0.795 ± 0.62 |
| AATGTTGTTGATGCAACCATAAAGTGATATTTAATAATTATTTATAATCAGCAACTTAACCACAAAACAACCATATATTGATATCTCACAAAACAACCATAAGTTGATATGGGGTGTCCGATCTGATTTCAGCAAAACTACTGCAGTAAGAA | -0.611 ± 0.81 | -0.33 ± 0.14 |
| AATGTTGTTGATGCAACCATAAAGTGATATTTAATAATTATTTATAATCAGCAACTTAACCACAAAACAACCATATATTGATATCTCACAAAACAACCATAAGTTGATATGTGAATCGAGTATTTCAGCAAAACTACTGCAGTAAGAAAGTT | -0.00636 ± 0.11 | -0.276 ± 0.26 |
| AATGTTGTTGATGCAACCATAAAGTGATATTTAATAATTATTTATAATCAGCAACTTAACCACAAAACAACCATATATTGATATCTCACAAAACAACCATAAGTTGATATTGGGTGTCCGATCTGATTTCAGCAAAACTACTGCAGTAAGAA | -0.651 ± 0.46 | -0.13 ± 0.053 |
| AATGTTGTTGATGCAACCATAAAGTGATATTTAATAATTATTTATAATCAGCAACTTAACCACAAAACAACCATATATTGATATCTCACAAAACAACCATAAGTTGATATTGTGAATCGAGTATTTCAGCAAAACTACTGCAGTAAGAAAGT | -0.0935 ± 0.19 | -0.306 ± 0.15 |
| AATGTTGTTGATGCAACCATAAAGTGATATTTAATAATTATTTATAATCAGCAACTTAACCACAAAACAACCATATATTGATATCTCACAAAACAACCATAAGTTGATATTTGTGAATCGAGTATTTCAGCAAAACTACTGCAGTAAGAAAG | 0.0663 ± 0.15 | -0.116 ± 0.072 |
| AATGTTGTTGATGCAACCATAAAGTGATATTTAATAATTATTTATAATCAGCAACTTAACCACAAAACAACCATATATTGATATCTCACAAAACAACCATAAGTTGATATTTTGTGAATCGAGTATTTCAGCAAAACTACTGCAGTAAGAAA | 0.169 ± 0.12 | 0.0855 ± 0.0046 |

Source: the supplement of paper PMC10201428
